The nanobody polyreactivity screen of Harvey et al. (2022)

Experiment: yeast display, Sf9 membrane polyspecificity reagent, FACS + sequencing; frameworks hold sequencing errors
Procedure, shortened: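 A synthetic nanobody library was expressed on Saccharomyces cerevisiae BJ5465 by galactose induction for 36–48 hours. The library was stained for 1 hour at 4 °C with 10% biotinylated, detergent-solubilized Sf9 membrane reagent and enriched with streptavidin microbeads before FACS. Low and high (top ~1%) gates were set on anti-HA fluorescence for expression and streptavidin fluorescence for reagent binding, and each polyreactivity label reflects the gate of origin.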

| Sequence | polyreactivity (PSR sort gate) |
| --- | --- |
| QVQLVESGGGLVQAGGSLRLSCAASGSTFYGYGLGWYRPAPGKERELFAAITGSGDTTYYADSVKGRFTISRDNAKNTVYLQMNSLKPEDTAVYYCNARWHAEYDYWGQGTQVTVSS | low polyreactivity |
| QVQLVESGGGLVQAGGSLRLSCAASGGIFDTYVMGWYRQAPGKETELVAAISSSGSTTYADSVKGRFTISRDNAKNTVYLQMNSLKPEDTAVYYCNADYSTIWRYDYWGQGTQVTVSS | low polyreactivity |
| QVQLVESGGGLVQAGGSLRLSSAASGRNYPKYAMGSYRQAPGKERELVAAISQRGGSTYYADSVKGRFTISRDNAKNTVYLQMNSLKPEDTAVYYCAASYYRQSGEYDYWGQGTLVTVSS | low polyreactivity |
| QVQLVESGGGLVQAGGSLRLSCAASGGIFQWYAMGWYRQAPGKVREFVAAITRRGGSTYYAYSVKGRFTISRDNAKNTVYLQMNSLKPEDTAVYYCAARPWADFDYWGQGTQVTVSS | low polyreactivity |
| QVQLVESGGGLVQAGGSLRFSCAASGTFVPYAMGWYRQAPGKEMELVARITWRGGSTYYADSVKGRFTISRDNAKNTVYLQMNSLKPEDTAVYYCATVSDNRYYYWGQGSQVTVSS | low polyreactivity |
| QVQLVESGGGLVQAGGSLRLSCAASGSTFIPYTMGWYRQAPGKERELVAAISGRGGRTYYADSVKGRFTISRDNAKNTVYLQMNSLKPEDTAVYYCNRVLRYGPSAQYDYWGQGTQVTVSS | high polyreactivity |
| QVQLVESGGGLVQAGGSLRLSCAASGSTFYPYAMGWYRQAPGKERELVADITNSGSTYYADSVKGRFTISRDNAKNTVYLQMNSLKPEDTAVYYCAARVYSVADYYYWGQGTQVTVSS | low polyreactivity |
| QVQLVESGGGLVQAGGSLRLSCAASGITFTSYVMGWYRQAPGKERELVAAIRWSGGRTYYADSVKGRFTISRDNAKNTVYLQMNSLKPEDTAVYYCNRVTRSHVDYWGQGTQLTVSS | high polyreactivity |
| QVQLVESGGGLVQAGVSLRLSCAASGSTFTGTAMGWYIQAPGKERELVASINGSSGSTYYADSVKGRFTISRDNAKNTVYLQMNSLKPEDTAVYYCAKDSFLHFPRVGWVGLEYWGQGTQVTLSS | low polyreactivity |
| QVHLVESGRGLVQAGGSLRLSCAASGSIFESYAIGWYRQAPGKERELVAAISGNSDSTYYADSVKGRFTISRDNEKNTVYLQMNSLKPEDTAVYYCAKEGGNGYDYWGQGTQVTVSS | low polyreactivity |
| QVQLVESGGGLVQAGGSLRLSCAASGITFGLYSMGWYRQAPGKQRELVASISQSGGSTYYADSVKGRFTISRDNAKNTVYLQMNSLKPEDTAVYYCNARRRFWDFSTRGYDSWGQGTQVTVSS | high polyreactivity |
| QVQLVESGGGLVQAGGSLRLICAASGSIFAVNAMGWYRQAPGKERELVAAISRRGGSTYYADSVKGRFTISRDNAKITDYLQMNSLKPEDTAVYYCAKRWKATRARYDYWGQGTQVTVAS | high polyreactivity |
| QVQLVESGGGLVQAGGSLRLSCAASGSTFLRYTMGWYRQAPGTERELVAAISPSAGSTYYADSVKGRFTISRDNAKNSVYLQMNSLTPEDTAVYYCAAKRGSVSRPDYGANDESWGQGTQVTVSS | high polyreactivity |
| QVQLVESGGGLVQAGGSLRLSCAASGNIFGIYAMGWYRQAPGKERELVAAIRGRGASTYYADSVKGRFTISRDNAKNTVYLQMNSLKPEDTAVYYCAVDVPLSRYWWRRTYDYWGQGTQVTVSS | low polyreactivity |
| QVQLVESGGGLVQAGGSLRLSCAASGLTFLDYAMGWYRQAPGKERELVAAITSGGSTNYADSVKGRFTISRDNAKNTVYLQMNSLKPEDTAVYYCATDLEVSAYDYWGQGTQVTVSS | low polyreactivity |
| QVQLVESGGGLVQAGGSLRLSCAASGITLFYSAMGWYRQAPGKERELVAAISWSGGSTYYADSVKGRFTISRDNAKNTVYLQMNSLKPEDTAVYYCAAGYIRFYRSREYWGQGTQVTVSS | high polyreactivity |
| QVQLVESGGGLVQAGGSLRLSCAASGSTFVGYAMGWYRQAPGKERELVAAISGGDSTYYADSVKGRFTLSRDNAQNTVYLQKNSLNPEDTALYYCAVGWTFDRRGYGYWGQGTQVTVSS | low polyreactivity |
| QVHLVESGGGLVQAGGSLRLSCAASGSIFAVYAMGWYRQAPGKERELVAAITRSGRTSYADSVKGRFTISRDNAKNTVYLQMNSLKPEDTAVFYCAVRTYYPTFGGFYYWGQGTQVTVSS | high polyreactivity |
| QVQLVESGGGLVQAGGSLRLSCAASGFIFKRYAMGWYRQAPGKERELVAAITLSGGDTYYADSVKGRFTISRDNAKNTVYLQMNSLKPEDTAVYYCNAPYIGENYYWGQGTQVTVSS | high polyreactivity |
| QVQLVESGGGLVQARGSLRLSCAASGFGWYAMGWYRQAPGKEREFVAAISRGGGSTYYADSVKGRFTISRDNAKNTVYLQMNSLKQEDTAVYYCAAVYYRRISQGDTQTYYQYNYWGQGTKVTVSS | high polyreactivity |
| QVQLVESGGGLVQAGGSLLLSCAASGYTLEYNAMGWNRQAPGKEREFVARIRWSGSSTYYADSVKGRCTISRDNAKNTVYLQMNSLKPEDTAVYYCNADDGYYVGLSSAIYDYWGQGTQVTVSS | high polyreactivity |

| Sequence | polyreactivity (PSR sort gate) |
| --- | --- |
| QVQLEESGGGLVQAGGSLRLSCAASGITFLNYAMGWYRQAPGKERELVAAISWSGGRTYYADSVKGRFTISRDNAKNTVYLQMNSLKPEDTAVYYCAVRGSWYSEHNYWGQGTQVTVSS | high polyreactivity |
| QVQLVESGGGLVHAGGSLRLSCAAAGSTFYYYAMGWYRQAPGKERELVARISDGDSTNYADSVKGRFTISRDNAKNTVYLQMNSLKPEDTAVYYCAAQHWYLGYGYWGQGTQVTVSS | low polyreactivity |
| QDQLVESGGGLVQAGGSLRLSCAASGRLFDLNAMGWNRQAPGTERELVAVISWSGGITYYADSVKGRFTSSRDNAKNTVYLLMNSLKPEDTAVYYCNADTDFDPYYEFDYWGQGTQVTVSS | low polyreactivity |
| QVQLVESGGGLVQAGGSLRLSCAASGSIFPGYAMGWSRQAPGKERELVAAISTSGGSTYADSVKGRFTISRDNAKNTVYLQMNSLKPEDTAVYYCAATYTYTSPVYYSLDGPWPYDYWGQGTQVTVSS | low polyreactivity |
| QVQLVESGGGLVQAGGSLRLSCAASGRTFNTNAMGWYRQAPGKERELVAAISGGGSTYADSVKGRFTISRDNAKNTVYLQMNSLKPEDTAVYYCKAYPPYLYATYDYWGQGTQVTVSS | low polyreactivity |
| QVQLVESGGGLVQAGGSLRLSCAASGLTFTQYAMGWYRQAPGKERELVAAITSGGRTYYADSVKGRFTISRDNAKNTVYLQMNSLKPEDTAVYYCAADRRYVDAYHFGYWGQGTQVTVSS | high polyreactivity |
| QVQLVESGGGLVQAGGSLRLSCAASGSTFSRYTMGWYRQAPGKERELVAGISGIGGSTDYADSVKGRFTISRDNAKNTVYLQMNSLKPEDTAVYYCNAEYTASYSRGFWRYYYPFEYWGQGTQVTVSS | high polyreactivity |
| QVQLVESGGGLVQAGGSLRLSCAASGSIFYINAMGWYRQAPGKERELGAAITSDGSTYYADSVKGRFTISRDKAKHTVYLQMNSLKPEDTAVYYCAADLTSDQFLYYWYWFYSWGQGTQVTVSS | low polyreactivity |
| QVQLVESGGGLVQAGGSLRLSCAASGSTLVIYAMGWYRQAPGKERELVAAINFSDGSTSYADSVKGRFTISRDNSKTTVYFQMNSLKPEDTAVYYWGQGTQVTVSS | low polyreactivity |
| QVQLVESGGGLVQAGGSLRLSCAASGFIFRLYAMGWYRQAPGKERELVAAITWSGGSTYYADSVKGRFTISRDNAKNTVYLQMNSLKPEDTAVYYCAAYATKNAFEYWGQGTQVTVSS | high polyreactivity |
| QVQLVESGGGLVQAAGSLRLSCAASGLTFWKYTMGWNRQAPGKEWELVAAISISGTNTYYADSVKGRFTISRDNAKNTVYLQLNSLKPEDTAVYYCAAVRGYPPTNYYYWGPGTQVTVSS | high polyreactivity |
| QVQLVESGGRLVQAGGSLRLSGAASGITLGTYLMGWYRQAPGKEREMLAAISSGGSTYYADSVKGRFTISRDNAKNTVFLQMNSLKPEDTAVYYCAAQYYPYYDSRVSYDYWGQGTQVTVSS | low polyreactivity |
| QVQLVESGGGLVQAGGSLRLSCAASGFIFVTNAMGWYRQAPGKERELVAAINWSGGRTYYADSVKGRFTISRDNAKNTVYLQMNSLKPEDTAVYYCAADPYARLGEYGYCGQGTQVTVSS | low polyreactivity |
| QVKLVESGGGLVQAGGSLRLSCAASGFIFLRYGMGWYRQAPGKERELVASIDSTGGSTYADSVKGRFTISRDNAKNTVYLKMNSLKPVDTAVYFCAAAFYIVSERDYCGQGTQVTVSS | low polyreactivity |
| QVQLVESGGGLVQAGGSLRLSCADYGFIMLYYALVCYRQAPGKERELVAAISWTGGRTYYADSVKGRFTISRDNAKNTVYLQMNSLKPEDTAVYFCNTVKLFGRKYGYWGQGTQVTVSS | low polyreactivity |
| QVQLVESGGGLVQAGGSLRLSCAASGRTFHRYAMGWYRPAPGKERELVAAISRGGITYYADSVKGRFTISRDNAKNTVYLQMNSLKPEDTAVYFCAALYRYYHESSPFDYWGQGTQVTVSS | high polyreactivity |
| QVQLVESGGGLVQAGGSLRLSCAASGFTFDYYNMGWYRQAPGKERELVAAITSGASTNYADSVKGRFTISRDNAKNTVYLQMNSLKPEDTAVYYCAAVLAGGVYWVVHYDYWGQGTQVTVSS | low polyreactivity |
| QVQLVESGGGLVQAGGSLRLSCAASGRIFPYNTMGLYRQAPGKERELVAAISRRGGSTYYADSVKGRFTISRDNAKNTVYLQMNSLKPEDTAVYYCNAVKPRDYGGLAYDYWGQGTQVTVSS | high polyreactivity |
| QDQLVESGGGLVQAGGSLRLSCAASGRTLGKNAMGWYRQAPGTERELVAAISSSGGSTYYADSVKGRFTISRDNAKNTVYLQMNSLKPEDTAVYYCAAKYFRKYSQIGPDMYYWGQGTQVTVSS | high polyreactivity |
| QVQLVESGGGLVQAGGSLRLSCAASGSTFTYYAMGWYRQAPGKERELVAAITSSGSTNYADSVKGRFTISRDNAKNTVYLQMNSLKPEDTAVYYCNAVSKWAIYDYWGQGTQVTVSS | high polyreactivity |
